Here are results for four molecules from PMC8880714, “Antimicrobial effect and mechanism of bovine lactoferrin against the potato common scab pathogen Streptomyces scabiei” (PLoS ONE, 2022).

Assay [1] concerns Streptomyces scabiei S58. Description: microbe, parasite or virus in culture. The conditions noted are these: TSB, 28 °C, 72 h, absorbance 600 nm; for IC50: S. scabiei S58 spores 2 × 10^5/mL, probit analysis, mean ± SD, n = 3, read-out: Antimicrobial activity (IC50). The class given is cell-based. On the procedure:
S. scabiei S58, isolated from potatoes grown in Kagoshima, Japan, was used in this study. […] For antimicrobial assays, the spores of the isolate were incubated at 28 °C in tryptic soy broth (TSB) (Becton Dickinson, Sparks, USA). Escherichia coli strains JM109 and BL21(λDE3) were grown at 37 °C in Luria-Bertani broth supplemented with 100 μg/mL ampicillin for propagation.
(§1) A 12-well plate was used to assess the antimicrobial activity of LF, hydrolysate, LFcinB, and synthetic peptides. One milliliter of TSB containing each test substance was added to each well and then the spores of S. scabiei S58, prepared as described above, were added into each well at a final concentration of 2 × 10^5 spores/mL. The mixture was incubated at 28 °C for 72 h, and the absorbance was measured at 600 nm to monitor bacterial growth. To further confirm whether the antimicrobial activity is due to growth inhibition or bactericidal effect, 1 mL of TSB containing 2 ×10^3 spores and bLF (1 mg/mL) was incubated at 28 °C and directly cultured on STA after 5, 10, 15, 24, 48, and 72 h of incubation to count the emerging colonies. All assays were performed in duplicate and were repeated three times.

Assay [2] concerns Streptomyces scabiei S58. Description: Bactericidal effect assay: colony counting on starch agar after treatment. It counts as cell-based. The conditions noted are these: bLF 1 mg/mL, 2 × 10^3 spores in 1 mL TSB, 28 °C. The protocol: as §1
Fig 3 Bactericidal effect of bovine-derived lactoferrin (bLF) (A) and minimal inhibitory concentration (MIC) of bLF (B) on Streptomyces scabiei S58. For the assay of bactericidal effect, the mixture of bLF and spores (2 × 10^3/mL) was incubated at 28 °C and directly cultured on starch agar in a time-dependent manner. The number of colonies emerging on the plates was counted. For the MIC assay, the mixture of bLF and spores (2 × 10^5/mL) was incubated at 28 °C for 72 h in tryptic soy broth and the absorbance was measured at 600 nm to monitor bacterial growth. […]

A word on the IC50: it is the concentration needed to halve the response being measured.

B1: Bovine lactoferrin (bLF): Bovine-derived lactoferrin purchased from FUJIFILM Wako (protein, UniProt P24627 20-708, looked up)
Lactotransferrin: APRKNVRWCTISQPEWFKCRRWQWRMKKLGAPSITCVRRAFALECIRAIAEKKADAVTLDGGMVFEAGRDPYKLRPVAAEIYGTKESPQTHYYAVAVVKKGSNFQLDQLQGRKSCHTGLGRSAGWIIPMGILRPYLSWTESLEPLQGAVAKFFSASCVPCIDRQAYPNLCQLCKGEGENQCACSSREPYFGYSGAFKCLQDGAGDVAFVKETTVFENLPEKADRDQYELLCLNNSRAPVDAFKECHLAQVPSHAVVARSVDGKEDLIWKLLSKAQEKFGKNKSRSFQLFGSPPGQRDLLFKDSALGFLRIPSKVDSALYLGSRYLTTLKNLRETAEEVKARYTRVVWCAVGPEEQKKCQQWSQQSGQNVTCATASTTDDCIVLVLKGEADALNLDGGYIYTAGKCGLVPVLAENRKSSKHSSLDCVLRPTEGYLAVAVVKKANEGLTWNSLKDKKSCHTAVDRTAGWNIPMGLIVNQTGSCAFDEFFSQSCAPGADPKSRLCALCAGDDQGLDKCVPNSKEKYYGYTGAFRCLAEDVGDVAFVKNDTVWENTNGESTADWAKNLNREDFRLLCLDGTRKPVTEAQSCHLAVAPNHAVVSRSDRAAHVKQVLLHQQALFGKNGKNCPDKFCLFKSETKNLLFNDNTECLAKLGGRPTYEEYLGTEYVTAIANLKKCSTSPLLEACAFLTR
In the case of B1, in the assay with Streptomyces scabiei S58 [1], the IC50 came to 458 ± 74 nM. Further, the “Minimal inhibitory concentration (no growth observed at this concentration and above)” value in the assay with Streptomyces scabiei S58 [1] (spores 2 × 10^5/mL) is 3.9 µM. The “Number of colonies after treatment, at 5 h” value with Streptomyces scabiei S58 [2] (plated on starch agar after 5 h) is given as “sharp decrease in the number of colonies”. The “Number of colonies after treatment, at 48 h” value with Streptomyces scabiei S58 [2] (plated on starch agar after 48 h) was “only a few colonies remained”.

B2: Holo-bLF: Iron-saturated (holo) bLF, iron saturation 95.5% (protein, UniProt P24627 20-708, looked up)
Lactotransferrin: APRKNVRWCTISQPEWFKCRRWQWRMKKLGAPSITCVRRAFALECIRAIAEKKADAVTLDGGMVFEAGRDPYKLRPVAAEIYGTKESPQTHYYAVAVVKKGSNFQLDQLQGRKSCHTGLGRSAGWIIPMGILRPYLSWTESLEPLQGAVAKFFSASCVPCIDRQAYPNLCQLCKGEGENQCACSSREPYFGYSGAFKCLQDGAGDVAFVKETTVFENLPEKADRDQYELLCLNNSRAPVDAFKECHLAQVPSHAVVARSVDGKEDLIWKLLSKAQEKFGKNKSRSFQLFGSPPGQRDLLFKDSALGFLRIPSKVDSALYLGSRYLTTLKNLRETAEEVKARYTRVVWCAVGPEEQKKCQQWSQQSGQNVTCATASTTDDCIVLVLKGEADALNLDGGYIYTAGKCGLVPVLAENRKSSKHSSLDCVLRPTEGYLAVAVVKKANEGLTWNSLKDKKSCHTAVDRTAGWNIPMGLIVNQTGSCAFDEFFSQSCAPGADPKSRLCALCAGDDQGLDKCVPNSKEKYYGYTGAFRCLAEDVGDVAFVKNDTVWENTNGESTADWAKNLNREDFRLLCLDGTRKPVTEAQSCHLAVAPNHAVVSRSDRAAHVKQVLLHQQALFGKNGKNCPDKFCLFKSETKNLLFNDNTECLAKLGGRPTYEEYLGTEYVTAIANLKKCSTSPLLEACAFLTR
modifications: iron-saturated (holo)
Turning to B2, in the assay with Streptomyces scabiei S58 [1], the concentration for half-maximal inhibition (IC50) stood at 2180 ± 428 nM.

B3: Apo-bLF: Iron-depleted (apo) bLF, iron saturation 0.35% (protein, UniProt P24627 20-708, looked up)
Lactotransferrin: APRKNVRWCTISQPEWFKCRRWQWRMKKLGAPSITCVRRAFALECIRAIAEKKADAVTLDGGMVFEAGRDPYKLRPVAAEIYGTKESPQTHYYAVAVVKKGSNFQLDQLQGRKSCHTGLGRSAGWIIPMGILRPYLSWTESLEPLQGAVAKFFSASCVPCIDRQAYPNLCQLCKGEGENQCACSSREPYFGYSGAFKCLQDGAGDVAFVKETTVFENLPEKADRDQYELLCLNNSRAPVDAFKECHLAQVPSHAVVARSVDGKEDLIWKLLSKAQEKFGKNKSRSFQLFGSPPGQRDLLFKDSALGFLRIPSKVDSALYLGSRYLTTLKNLRETAEEVKARYTRVVWCAVGPEEQKKCQQWSQQSGQNVTCATASTTDDCIVLVLKGEADALNLDGGYIYTAGKCGLVPVLAENRKSSKHSSLDCVLRPTEGYLAVAVVKKANEGLTWNSLKDKKSCHTAVDRTAGWNIPMGLIVNQTGSCAFDEFFSQSCAPGADPKSRLCALCAGDDQGLDKCVPNSKEKYYGYTGAFRCLAEDVGDVAFVKNDTVWENTNGESTADWAKNLNREDFRLLCLDGTRKPVTEAQSCHLAVAPNHAVVSRSDRAAHVKQVLLHQQALFGKNGKNCPDKFCLFKSETKNLLFNDNTECLAKLGGRPTYEEYLGTEYVTAIANLKKCSTSPLLEACAFLTR
modifications: iron-depleted (apo)
Take B3: the IC50 with Streptomyces scabiei S58 [1] is 2390 ± 203 nM.

B4: Human lactoferrin (hLF): Human-derived lactoferrin purchased from FUJIFILM Wako (protein, UniProt P02788 20-710, looked up)
Lactotransferrin: GRRRSVQWCAVSQPEATKCFQWQRNMRKVRGPPVSCIKRDSPIQCIQAIAENRADAVTLDGGFIYEAGLAPYKLRPVAAEVYGTERQPRTHYYAVAVVKKGGSFQLNELQGLKSCHTGLRRTAGWNVPIGTLRPFLNWTGPPEPIEAAVARFFSASCVPGADKGQFPNLCRLCAGTGENKCAFSSQEPYFSYSGAFKCLRDGAGDVAFIRESTVFEDLSDEAERDEYELLCPDNTRKPVDKFKDCHLARVPSHAVVARSVNGKEDAIWNLLRQAQEKFGKDKSPKFQLFGSPSGQKDLLFKDSAIGFSRVPPRIDSGLYLGSGYFTAIQNLRKSEEEVAARRARVVWCAVGEQELRKCNQWSGLSEGSVTCSSASTTEDCIALVLKGEADAMSLDGGYVYTAGKCGLVPVLAENYKSQQSSDPDPNCVDRPVEGYLAVAVVRRSDTSLTWNSVKGKKSCHTAVDRTAGWNIPMGLLFNQTGSCKFDEYFSQSCAPGSDPRSNLCALCIGDEQGENKCVPNSNERYYGYTGAFRCLAENAGDVAFVKDVTVLQNTDGNNNEAWAKDLKLADFALLCLDGKRKPVTEARSCHLAMAPNHAVVSRMDKVERLKQVLLHQQAKFGRNGSDCPDKFCLFQSETKNLLFNDNTECLARLHGKTTYEKYLGPQYVAGITNLKKCSTSPLLEACEFLRK
Turning to B4, the IC50 in the assay on Streptomyces scabiei S58 [1] stood at 138000 ± 7960 nM.
